B1: TPR t1 (parent)
chain: GACCAAUCUGCCCUCAGAGCUCGAGAACAUCUUCGGAUGCAGAGGAGGCAGGCUUCGGUGGCGCGAUAGCGCCAACGUCCUCAACCUCCAAUGCAUCCCACCACAUGAUGAUGCCUGAAGAGCCUUGGUUUUUUG

Variants of: B1
Experiment: polymerase ribozyme fitness, log enrichment relative to wild type (log ratio); higher = more active; in vitro selection for triplet polymerase activity
Method in brief: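 For each subunit of a heterodimeric triplet polymerase ribozyme, a mutant library was built by PCR and transcribed, then taken through a single in vitro selection round in triplicate. Selection involved annealing to a biotinylated primer, the partner subunit and triplets, incubation frozen at −7 °C, gel excision of extended constructs, capture on streptavidin beads and RT-PCR. Genotypes were retained after Illumina sequencing of inputs and outputs only with ≥10 input reads and ≥1 read in each output. Fitness is defined as the logarithm of a genotype's enrichment relative to wild-type enrichment, using inverse-variance-weighted averages across replicates, with the logarithm taken to base 2.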

Variant | polymerase ribozyme fitness (log ratio)
G77A G93A C124A | 1.34
U78C C85G C124A | -0.513
U78C C94G A95G A118U | -0.801
C73A G128U | -2.16
C73A G135C | 0.342
C73A C104U | 0.181
U78C A83C C94U G110A A118U G120U U132C | -2.85
A74C U133A | -0.0752
C73A C101U G110U | -1.75
C76G C98A | -4.09
G77C G122A U130A | -1.41
U78G A95G U125G | -1.07
U78C U109A G128A | -4.56
U78C A111U | -2.5
C72U U116A G120U | -1.54
C73U G110U G120A | -2.15
C73A G113A | -0.815
C76G A84U U133G | -0.998
A74G A83U U106C | -0.743
U81A C89U | -0.112
U78C G110C | -3.67
U78G A95C | -0.597
C73G G122U C123G | 0.776
C80U G120U U129G | -0.816

Variant | polymerase ribozyme fitness (log ratio)
C79A C82U | -0.745
A74U C80U C82G | -0.403
A74G U109G | -4.6
G77C C86G | -1.47
C73U G122A | -0.427
G77A C98U U126C U130C | -1.62
A75G C94G | -1.19
C73G C86A | -1.38
U78C G93A U112C G128U | -1.32
U78C A83C | 0.0151
C79U A121C | 1.81
C73U G117A G120U | -2.36
U78A U87G | -0.804
A75G U112A | 1.59
C73A G120U | 0.347
C73A G120A | 0.528
C73A C79U C86A C115U | -3.26
C79U C114A | -0.742
A74U C88G A118U | -1.31
C79A C124A | 0.574
C73U C79G | -2.02
U78C C80U C89U G117C A119G | -1.72
C72U C97U | -1.45
C73G G93C | -2.05

Variant | polymerase ribozyme fitness (log ratio)
C72U U78A | -1.19
C73U C80U G135C | -0.322
C72U G110C | -4.19
C76U C104A | -1.92
C73U G117A | 0.149
C73G G128A | -2.13
C72U C94A U125A | -1.59
C73G G113C | -2.85
U78C A95G | -1.08
C73G G77U C114U | -3.31
C73U C115G | -1.77
C73A C94G | -0.66
C73A C94A | -0.492
C79U C80U U116C | -4.27
C73G U130C | -0.482
C79U A111U U112A C124A | 1.11
C72U G117A U133A | -1.1
C76U C82U C102U G117A | -4.4
C72U U133A | -0.682
C79U G117C | -3.9
C80U C101U G128A | -2.13
C73G U133A | -1.27
C73A A103G G110A | -6.42
U78A G117A G128C | -5.04

Variant | polymerase ribozyme fitness (log ratio)
C73U A91G C104U U112A G113U | -0.254
C80A C123U | -2.06
C73U C114U C123A | -3.41
C76G C102U C104A | -1.03
G77C C89U G128C | -3.81
C73U U78C U96A | -1.03
A74C A105C | -2.34
C80A U96C | -3.2
U78G G120A | 0.634
C73G A105U | -2.27
A74U U87A C102U C104A | -2.53
A75G U129A | -0.79
G77U C94U C102A C115A | -2.01
C72U G93U C123G | -1.42
G77C U92C G122A | -2.81
C72U G120C C123G | 0.164
U81A A105U U132C | -2.04
C73U U92C | -1.83
A74G U112A U126A | 0.303
C73U G110U | -1.17
C73U G110C | -3.31
C72U U106C | -0.313
C80U C123A | -0.37
C72U U78C C97A | -4.87

Variant | polymerase ribozyme fitness (log ratio)
C73A A100C A119U | -1.6
A74U U78C G120C | 0.366
C73G C80A | -4.88
C73G C123A | 0.232
G77U C101G | -1.96
C79A G110A | -2.55
C73U C88U U92G | -2.64
C73G G117A A121U | -0.326
C73A C79G | -2.94
C76U G117C | -3.98
U78G C114G U129A | -4.16
C76A G113C | -3.53
U78C C82A C85U G93A | -1.53
C80G G127U | -6.14
C79A A91C | -3.69
C79A C123U | 0.304
C72U U78C U106C G117A A118U U125G | -5.09
U81A A91U C101U | -3.43
C73G U81G | -3.66
U78C C97A | -4.81
U78C A84C | -0.194
A75U U81A G113C U130C | -3.89
C73U C104U | 0.0551
U78C C88U C123G U125A | 1.82

Variant | polymerase ribozyme fitness (log ratio)
U78C U87G U126A | -2.18
G77U C82U G107A U112C | -5.86
C73U U81G C82G C123A | 0.626
C80U A84U C89U A119G C123A | 0.318
A74U G120U | -0.788
C73A U92G | -2.07
C76A G120U | -0.741
C79G G93U C115G | -4.32
C79G A83G G117C | -5.42
C76A C89A | -3.18
C76A C82G C88U G110C | -5.82
C79A C82U C94A G113A G128U | -5.6
C80U G135U | -0.986
C80G C124A | -5.18
G77C G117U | -2.55
U78C U112A C114G | -0.26
C80U G128C | -3.33
G77U U78C U87G A121U U130G | 2.02
C79U C80U C104U | -1.54
C73A C102G | -5.02
G77A C80U C98A C123G | -4.14
C79G U126G | -2.94
C76U G127A | -1.52
A74G U112G U116A | -1.07

Variant | polymerase ribozyme fitness (log ratio)
C72U U129A | -1.42
U78C A111G C124A | 1.04
C76A U78A U96A | -1.43
C80U C94U | -0.851
G77A C85A | -2.93
C79A A83G C115G C123A U131G | -4.48
C80A C124A | -0.56
C73A C101G A119U | -1.93
A74U U78A C85U C114U | -4.72
C73G U96G C102A | -3.86
C73A C89A A118U | -1.26
C73U C82A C124G | 1.47
G77C U129A | -1.42
C73U A105C A119U G128A | -3.98
C76G G77U | 0.0405
C72U U92A | -3.15
C72U U92C | -0.581
C73A G120U A121C | 0.179
U78A C123A | 0.278
C73U A84G A90U A103G U109A C124A | -4.51
C76U G135U | -1.08
U78C C80U | -0.608
C73G A83C C101G C115U U116A | -5.12

— the RNAGym collection of RNA variant scans (doi:10.1073/pnas.2313332121)
